Measured values from publication PMC9335864.

Biological target: N-terminal Nanoluciferase-tagged p97-N domain (human)
Assay: FRET or BRET; NanoBRET in p47-knockout U2OS cells: Nanoluciferase-p97-N donor, p47-UBX-HaloTag acceptor, co-transfected with antibody-fragment or p47-FLAG plasmids; compared with scFv-RNase and scFab-RNase controls

Sequence of N-terminal Nanoluciferase-tagged p97-N domain (human) (P55072 2-806): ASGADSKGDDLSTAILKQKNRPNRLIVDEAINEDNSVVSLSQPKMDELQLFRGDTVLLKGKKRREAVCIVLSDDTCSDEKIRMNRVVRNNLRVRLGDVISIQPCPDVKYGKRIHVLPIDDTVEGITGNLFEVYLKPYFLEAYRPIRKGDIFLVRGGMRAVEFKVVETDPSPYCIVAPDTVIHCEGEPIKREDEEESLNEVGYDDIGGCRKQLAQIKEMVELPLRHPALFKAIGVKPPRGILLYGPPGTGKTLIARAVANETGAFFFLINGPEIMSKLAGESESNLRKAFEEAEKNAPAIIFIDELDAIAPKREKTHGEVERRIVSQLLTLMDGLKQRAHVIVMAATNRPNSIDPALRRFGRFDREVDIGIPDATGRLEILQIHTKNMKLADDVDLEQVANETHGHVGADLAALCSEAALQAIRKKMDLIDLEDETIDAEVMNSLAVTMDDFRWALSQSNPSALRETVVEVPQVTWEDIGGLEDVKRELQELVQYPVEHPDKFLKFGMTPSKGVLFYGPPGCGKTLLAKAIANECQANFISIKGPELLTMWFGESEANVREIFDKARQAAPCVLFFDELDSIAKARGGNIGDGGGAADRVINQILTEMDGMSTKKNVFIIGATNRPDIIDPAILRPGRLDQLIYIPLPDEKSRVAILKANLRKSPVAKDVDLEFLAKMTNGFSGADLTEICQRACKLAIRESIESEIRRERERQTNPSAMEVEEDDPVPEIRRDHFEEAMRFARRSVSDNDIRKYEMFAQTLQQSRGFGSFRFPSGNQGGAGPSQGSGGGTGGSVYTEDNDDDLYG

- reduction of the BRET ratio of the p97-N/p47-UBX pair: 15%
B1: p47-FLAG (natural protein)
chain: MAAERQEALREFVAVTGAEEDRARFFLESAGWDLQIALASFYEDGGDEDIVTISQATPSSVSRGTAPSDNRVTSFRDLIHDQDEDEEEEEGQRFYAGGSERSGQQIVGPPRKKSPNELVDDLFKGAKEHGAVAVERVTKSPGETSKPRPFAGGGYRLGAAPEEESAYVAGEKRQHSSQDVHVVLKLWKSGFSLDNGELRSYQDPSNAQFLESIRRGEVPAELRRLAHGGQVNLDMEDHRDEDFVKPKGAFKAFTGEGQKLGSTAPQVLSTSSPAQQAENEAKASSSILIDESEPTTNIQIRLADGGRLVQKFNHSHRISDIRLFIVDARPAMAATSFILMTTFPNKELADESQTLKEANLLNAVIVQRLT
